Measurements: the supplement of paper PMC11246515
± gives the standard deviation of the averaged measurements.

Assay: total protein half-life in vivo (active degradation + dilution); higher = more stable protein
[1] = E. coli NCM3722 delta-clpP delta-lon delta-hslV, growth: N-lim chemostat, doubling time 6 h
[2] = E. coli NCM3722 delta-clpP, growth: N-lim chemostat, doubling time 6 h
[3] = E. coli NCM3722 delta-hslV, growth: N-lim chemostat, doubling time 6 h
[4] = E. coli NCM3722 delta-lon, growth: N-lim chemostat, doubling time 6 h
[5] = E. coli NCM3722 delta-smpB, growth: N-lim chemostat, doubling time 6 h
[6] = wild type E. coli NCM3722, growth: C-lim chemostat, doubling time 3 h
[7] = wild type E. coli NCM3722, growth: C-lim chemostat, doubling time 6 h
[8] = wild type E. coli NCM3722, growth: C-lim chemostat, doubling time 12 h
[9] = wild type E. coli NCM3722, growth: N-lim chemostat, doubling time 6 h
[10] = wild type E. coli NCM3722, growth: N-lim chemostat, doubling time 12 h
[11] = wild type E. coli NCM3722, growth: P-lim chemostat, doubling time 6 h
[12] = wild type E. coli NCM3722, growth: P-lim chemostat, doubling time 12 h

| Sequence | total protein half-life in vivo [1] | total protein half-life in vivo [2] | total protein half-life in vivo [3] | total protein half-life in vivo [4] | total protein half-life in vivo [5] | total protein half-life in vivo [6] | total protein half-life in vivo [7] | total protein half-life in vivo [8] | total protein half-life in vivo [9] | total protein half-life in vivo [10] | total protein half-life in vivo [11] | total protein half-life in vivo [12] |
| --- | --- | --- | --- | --- | --- | --- | --- | --- | --- | --- | --- | --- |
| MSKSTAEIRQAFLDFFHSKGHQVVASSSLVPHNDPTLLFTNAGMNQFKDVFLGLDKRNYSRATTSQRCVRAGGKHNDLENVGYTARHHTFFEMLGNFSFGDYFKHDAIQFAWELLTSEKWFALPKERLWVTVYESDDEAYEIWEKEVGIPRERIIRIGDNKGAPYASDNFWQMGDTGPCGPCTEIFYDHGDHIWGGPPGSPEEDGDRYIEIWNIVFMQFNRQADGTMEPLPKPSVDTGMGLERIAAVLQHVNSNYDIDLFRTLIQAVAKVTGATDLSNKSLRVIADHIRSCAFLIADGVMPSNENRGYVLRRIIRRAVRHGNMLGAKETFFYKLVGPLIDVMGSAGEDLKRQQAQVEQVLKTEEEQFARTLERGLALLDEELAKLSGDTLDGETAFRLYDTYGFPVDLTADVCRERNIKVDEAGFEAAMEEQRRRAREASGFGADYNAMIRVDSASEFKGYDHLELNGKVTALFVDGKAVDAINAGQEAVVVLDQTPFYAESGGQVGDKGELKGANFSFAVEDTQKYGQAIGHIGKLAAGSLKVGDAVQADVDEARRARIRLNHSATHLMHAALRQVLGTHVSQKGSLVNDKVLRFDFSHNEAMKPEEIRAVEDLVNTQIRRNLPIETNIMDLEAAKAKGAMALFGEKYDERVRVLSMGDFSTELCGGTHASRTGDIGLFRIISESGTAAGVRRIEAVTGEGAIATVHADSDRLSEVAHLLKGDSNNLADKVRSVLERTRQLEKELQQLKEQAAAQESANLSSKAIDVNGVKLLVSELSGVEPKMLRTMVDDLKNQLGSTIIVLATVVEGKVSLIAGVSKDVTDRVKAGELIGMVAQQVGGKGGGRPDMAQAGGTDAAALPAALASVKGWVSAKLQ | 5.338 ± 0.0061 h | 5.33 ± 0.19 h | 5.65 ± 0.48 h | 5.67 ± 0.09 h | 5.06 ± 0.068 h | 3.04 ± 0.14 h | 6.01 ± 0.44 h | 11 ± 0.2 h | 5.11 ± 0.11 h | 9.15 ± 0.27 h | 6.2 ± 0.075 h | 11.9 ± 0.62 h |
| MSKVLVLKSSILAGYSQSNQLSDYFVEQWREKHSADEITVRDLAANPIPVLDGELVGALRPSDAPLTPRQQEALALSDELIAELKAHDVIVIAAPMYNFNISTQLKNYFDLVARAGVTFRYTENGPEGLVTGKKAIVITSRGGIHKDGPTDLVTPYLSTFLGFIGITDVKFVFAEGIAYGPEMAAKAQSDAKAAIDSIVSA | 2.22 ± 0.11 h | 1.48 ± 0.24 h | 1.34 ± 0.044 h | 1.5 ± 0.044 h | 1.49 ± 0.15 h | 2.81 ± 0.096 h | 3.39 ± 0.25 h | 5.43 ± 0.92 h | 1.52 ± 0.16 h | 1.85 ± 0.14 h | 4.25 ± 0.14 h | 6.31 ± 0.4 h |
| MSKVTPQPKIGFVSLGCPKNLVDSERILTELRTEGYDVVPSYDDADMVIVNTCGFIDSAVQESLEAIGEALNENGKVIVTGCLGAKEDQIREVHPKVLEITGPHSYEQVLEHVHHYVPKPKHNPFLSLVPEQGVKLTPRHYAYLKISEGCNHRCTFCIIPSMRGDLVSRPIGEVLSEAKRLVDAGVKEILVISQDTSAYGVDVKHRTGFHNGEPVKTSMVSLCEQLSKLGIWTRLHYVYPYPHVDDVIPLMAEGKILPYLDIPLQHASPRILKLMKRPGSVDRQLARIKQWREICPELTLRSTFIVGFPGETEEDFQMLLDFLKEARLDRVGCFKYSPVEGADANALPDQVPEEVKEERWNRFMQLQQQISAERLQEKVGREILVIIDEVDEEGAIGRSMADAPEIDGAVYLNGETNVKPGDILRVKVEHADEYDLWGSRV [P0AEI4] | 4.5 ± 0.2 h | 2.28 ± 0.062 h | 3.6 ± 0.089 h | 4.08 ± 0.84 h | 2.94 ± 0.053 h | 2.36 ± 0.54 h | 4.39 ± 0.39 h | 7.02 ± 1.1 h | 3.47 ± 0.46 h | 5.31 ± 0.15 h | 4.37 ± 0.28 h | 6.68 ± 0.64 h |
| MSLAKDNIWKLLAPLVVMGVMFLIPVPDGMPPQAWHYFAVFVAMIVGMILEPIPATAISFIAVTICVIGSNYLLFDAKELADPAFNAQKQALKWGLAGFSSTTVWLVFGAFIFALGYEVSGLGRRIALFLVKFMGKRTLTLGYAIVIIDILLAPFTPSNTARTGGTVFPVIKNLPPLFKSFPNDPSARRIGGYLMWMMVISTSLSSSMFVTGAAPNVLGLEFVSKIAGIQISWLQWFLCFLPVGVILLIIAPWLSYVLYKPEITHSEEVATWAGDELKTMGALTRREWTLIGLVLLSLGLWVFGSEVINATAVGLLAVSLMLALHVVPWKDITRYNSAWNTLVNLATLVVMANGLTRSGFIDWFAGTMSTHLEGFSPNATVIVLVLVFYFAHYLFASLSAHTATMLPVILAVGKGIPGVPMEQLCILLVLSIGIMGCLTPYATGPGVIIYGCGYVKSKDYWRLGAIFGVIYISMLLLVGWPILAMWN [P0AE74] | – | 7.68 h | – | – | – | – | – | – | – | – | – | – |
| MSLLAQLDQKIAANGGLIVSCQPVPDSPLDKPEIVAAMALAAEQAGAVAIRIEGVANLQATRAVVSVPIIGIVKRDLEDSPVRITAYIEDVDALAQAGADIIAIDGTDRPRPVPVETLLARIHHHGLLAMTDCSTPEDGLACQKLGAEIIGTTLSGYTTPETPEEPDLALVKTLSDAGCRVIAEGRYNTPAQAADAMRHGAWAVTVGSAITRLEHICQWYNTAMKKAVL [P0A761] | – | 5.64 h | 3.95 h | 4.21 ± 0.027 h | 4.27 h | 2.9 ± 0.27 h | 5.06 ± 0.56 h | 10.3 ± 1.4 h | 4.14 ± 0.36 h | 7.56 h | 5.84 ± 1 h | 9.47 ± 0.41 h |
| MSLNFLDFEQPIAELEAKIDSLTAVSRQDEKLDINIDEEVHRLREKSVELTRKIFADLGAWQIAQLARHPQRPYTLDYVRLAFDEFDELAGDRAYADDKAIVGGIARLDGRPVMIIGHQKGRETKEKIRRNFGMPAPEGYRKALRLMQMAERFKMPIITFIDTPGAYPGVGAEERGQSEAIARNLREMSRLGVPVVCTVIGEGGSGGALAIGVGDKVNMLQYSTYSVISPEGCASILWKSADKAPLAAEAMGIIAPRLKELKLIDSIIPEPLGGAHRNPEAMAASLKAQLLADLADLDVLSTEDLKNRRYQRLMSYGYA [P0ABD5] | 6.13 ± 0.7 h | – | 6.72 ± 0.71 h | 7.18 ± 0.38 h | 5.526 ± 0.043 h | 3.63 ± 0.15 h | 7.76 ± 0.089 h | 12.5 ± 0.96 h | 6.34 ± 0.58 h | 11.4 ± 2.5 h | 6.27 ± 0.27 h | 13.9 ± 1.9 h |
| MSLNLVSEQLLAANGLKHQDLFAILGQLAERRLDYGDLYFQSSYHESWVLEDRIIKDGSYNIDQGVGVRAISGEKTGFAYADQISLLALEQSAQAARTIVRDSGDGKVQTLGAVEHSPLYTSVDPLQSMSREEKLDILRRVDKVAREADKRVQEVTASLSGVYELILVAATDGTLAADVRPLVRLSVSVLVEEDGKRERGASGGGGRFGYEFFLADLDGEVRADAWAKEAVRMALVNLSAVAAPAGTMPVVLGAGWPGVLLHEAVGHGLEGDFNRRGTSVFSGQVGELVASELCTVVDDGTMVDRRGSVAIDDEGTPGQYNVLIENGILKGYMQDKLNARLMGMTPTGNGRRESYAHLPMPRMTNTYMLPGKSTPQEIIESVEYGIYAPNFGGGQVDITSGKFVFSTSEAYLIENGKVTKPVKGATLIGSGIETMQQISMVGNDLKLDNGVGVCGKEGQSLPVGVGQPTLKVDNLTVGGTA [P0AGG8] | 5.22 ± 1.1 h | 3.75 ± 0.12 h | 3.805 ± 0.0063 h | 4.52 ± 0.13 h | 3.73 ± 0.064 h | 2.74 ± 0.14 h | 5.14 ± 0.45 h | 8.1 ± 0.85 h | 3.88 ± 0.13 h | 6.45 ± 0.19 h | 5.11 ± 0.16 h | 11 ± 1.7 h |
| MSLPHLSLADARNLHLAAQGLLNKPRRRASLEDIPATISRMSLLQIDTINIVARSPYLVLFSRLGNYPAQWLDESLARGELMEYWAHEACFMPRSDFRLIRHRMLAPEKMGWKYKDAWMQEHEAEIAQLIQHIHDKGPVRSADFEHPRKGASGWWEWKPHKRHLEGLFTAGKVMVIERRNFQRVYDLTHRVMPDWDDERDLVSQTEAEIIMLDNSARSLGIFREQWLADYYRLKRPALAAWREARAEQQQIIAVHVEKLGNLWLHDDLLPLLERALAGKLTATHSAVLSPFDPVVWDRKRAEQLFDFSYRLECYTPAPKRQYGYFVLPLLHRGQLVGRMDAKMHRQTGILEVISLWLQEGIKPTTTLQKGLRQAITDFANWQQATRVTLGCCPQGLFTDCRTGWEIDPVA | 6.77 h | – | – | – | – | – | – | – | – | – | – | – |
| MSLPSIPSFVLSGLLLICLPFSSFASATTSHISFSYAARQRMQNRARLLKQYQTHLKKQASYIVEGNAESKRALRQHNREQIKQHPEWFPAPLKASDRRWQALAENNHFLSSDHLHNITEVAIHRLEQQLGKPYVWGGTRPDKGFDCSGLVFYAYNKILEAKLPRTANEMYHYRRATIVANNDLRRGDLLFFHIHSREIADHMGVYLGDGQFIESPRTGETIRISRLAEPFWQDHFLGARRILTEETIL | – | – | – | – | – | – | – | 3.06 h | – | – | – | – |
| MSLSRAAIVDQLKEIVGADRVITDETVLKKNSIDRFRKFPDIHGIYTLPIPAAVVKLGSTEQVSRVLNFMNAHKINGVPRTGASATEGGLETVVENSVVLDGSAMNQIINIDIENMQATAQCGVPLEVLENALREKGYTTGHSPQSKPLAQMGGLVATRSIGQFSTLYGAIEDMVVGLEAVLADGTVTRIKNVPRRAAGPDIRHIIIGNEGALCYITEVTVKIFKFTPENNLFYGYILEDMKTGFNILREIMVEGYRPSIARLYDAEDGTQHFTHFADGKCVLIFMAEGNPRIAKVTGEGIAEIVARYPQCQRVDSKLIETWFNNLNWGPDKVAAERVQILKTGNMGFTTEVSGCWSCIHEIYESVINRIRTEFPHADDITMLGGHSSHSYQNGTNMYFVYDYNVVDCKPEEEIDKYHNPLNKIICEETIRLGGSMVHHHGIGKHRVHWSKLEHGSAWALLEGLKKQFDPNGIMNTGTIYPIEK | – | – | – | – | – | 3.54 h | – | – | – | – | – | – |
